The target in this assay is recombinant AvrM-A Δ28 with an N-terminal hexahistidine tag (Melampsora lini (flax rust)). The assay is described as follows: SEC-MALS. On the technique in general: Size exclusion chromatography separates by hydrodynamic size, large species first.

What is called stoichiometry N is the number of molecules, sites or subunits per partner or assembly. Consider “recombinant AvrM-A Δ28 with an N-terminal hexahistidine tag (natural protein)”, for which the stoichiometry N turned out to be 2.

Source of the values: paper PMC3142614.
